Experimental data as given in patent US12146152B2, “Systems, methods, and compositions for correction of frameshift mutations” (Massachusetts Institute of Technology, priority 2019, dated 2024).

B1: T4pol: T4 DNA polymerase, DSB-end blunting enzyme co-transferred with Cas9 and sgRNA (protein, UniProt P04415 1-898, looked up)
DNA-directed DNA polymerase: MKEFYISIETVGNNIVERYIDENGKERTREVEYLPTMFRHCKEESKYKDIYGKNCAPQKFPSMKDARDWMKRMEDIGLEALGMNDFKLAYISDTYGSEIVYDRKFVRVANCDIEVTGDKFPDPMKAEYEIDAITHYDSIDDRFYVFDLLNSMYGSVSKWDAKLAAKLDCEGGDEVPQEILDRVIYMPFDNERDMLMEYINLWEQKRPAIFTGWNIEGFDVPYIMNRVKMILGERSMKRFSPIGRVKSKLIQNMYGSKEIYSIDGVSILDYLDLYKKFAFTNLPSFSLESVAQHETKKGKLPYDGPINKLRETNHQRYISYNIIDVESVQAIDKIRGFIDLVLSMSYYAKMPFSGVMSPIKTWDAIIFNSLKGEHKVIPQQGSHVKQSFPGAFVFEPKPIARRYIMSFDLTSLYPSIIRQVNISPETIRGQFKVHPIHEYIAGTAPKPSDEYSCSPNGWMYDKHQEGIIPKEIAKVFFQRKDWKKKMFAEEMNAEAIKKIIMKGAGSCSTKPEVERYVKFSDDFLNELSNYTESVLNSLIEECEKAATLANTNQLNRKILINSLYGALGNIHFRYYDLRNATAITIFGQVGIQWIARKINEYLNKVCGTNDEDFIAAGDTDSVYVCVDKVIEKVGLDRFKEQNDLVEFMNQFGKKKMEPMIDVAYRELCDYMNNREHLMHMDREAISCPPLGSKGVGGFWKAKKRYALNVYDMEDKRFAEPHLKIMGMETQQSSTPKAVQEALEESIRRILQEGEESVQEYYKNFEKEYRQLDYKVIAEVKTANDIAKYDDKGWPGFKCPFHIRGVLTYRRAVSGLGVAPILDGNKVMVLPLREGNPFGDKCIAWPSGTELPKEIRSDVLSWIDHSTLFQKSFVKPLAGMCESAGMDYEEKASLDFLFG
B2: POLL: DNA polymerase λ, DSB-end blunting enzyme co-transferred with Cas9 and sgRNA (protein)
chain: CLQERRLVDVAGFSIFIPSRYLDHPQPSKAEQDASIPPGTHEALLQTALSPPPPPTRPVSPPQKAKEAPNTQAQPISDDEASDGEETQVSAADLEALISGHYPTSLEGDCEPSPAPAVLDKWVCAQPSSQKATNHNLHITEKLEVLAKAYSVQGDKWRALGYAKAINALKSFHKPVTSYQEACSIPGIGKRMAEKIIEILESGHLRKLDHISESVPVLELFSNIWGAGTKTAQMWYQQGFRSLEDIRSQASLTTQQAIGLKHYSDFLERMPREEATEIEQTVQKAAQAFNSGLLCVACGSYRRGKATCGDVDVLITHPDGRSHRGIFSRLLDSLRQEGFLTDDLVSQEENGQQQKYLGVCRLPGPGRRHRRLDIIVVPYSEFACALLYFTGSAHFNRSMRALAKTKGMSLSEHALSTAVVRNTHGCKVGPGRVLPTPTEKDVFRLLGLPYREPAERDW
B3: EXOG: single-strand DNA specific nuclease, blunting enzyme co-transferred with Cas9 and sgRNA (protein)
chain: WSRGHMAPAGNNKFSSKAMAETFYLSNIVPQDFDNNSGYWNRIEMYCRELTERFEDVWVVSGPLTLPQTRGDGKKIVSYQVIGEDNVAVPSHLYKVILARRSSVSTEPLALGAFVVPNEAIGFQPQLTEFQVSLQDLEKLSGLVFFPHLDRTSDIRNICSVDTCKLLDFQEFTLYLSTRKIEGARSVLRLEKIMENLKNAEIEPDDYFMSRYEKKLEELKAKEQSGTQIRKPS
B4: MGME1: single-strand DNA specific nuclease, blunting enzyme co-transferred with Cas9 and sgRNA (protein)
chain: LQQTMTKQQVFLLERWKQRMILELGEDGFKEYTSSFHVCDHVYMKNLARDVFLQGKRFHEALESILSPQETLKERDENLLKSGYIESVQHILKDVSGVRALESAVQHETLNYIGLLDCVAEYQGKLCVIDWKTSEKPKPFIQSTFDNPLQVVAYMGAMNHDTNYSFQVQCGLIVVAYKDGSPAHPHFMDAELCSQYWIKWLLRLEEYTEKKKNQNIQKPEYSE
B5: RecJ: RecJ exonuclease, blunting enzyme co-transferred with Cas9 and sgRNA (protein)
chain: TVDNGISSHAGVEHARSLGIPVIVTDHHLPGDTLPAAEAIINPNLRDCNFPSKSLAGVGVAFYLMLALRTFLRDQGWFDERNIAIPNLAELLDLVALGTVADVVPLDANNRILTWQGMSRIRAGKCRPGIKALLEVANRDAQKLAASDLGFALGPRLNAAGRLDDMSVGVALLLCDNIGEARVLANELDALNQTRKEIEQGMQIEALTLCEKLERSRDTLPGGLAMYHPEWHQGVVGILASRIKERFHRPVIAFAPAGDGTLKGSGRSIQGLHMRDALERLDTLYPGMMLKFGGHAMAAGLSLEEDKFKLFQQRFGELVTEWLDPSLLQGEVVSDGPLSPAEMTMEVAQLLRDAGPWGQMFPEPLFDGHFRLLQQRLVGERHLKVMVEPVGGGPLLDGIAFNVDTALWPDNGVREVQLAYKLDINEFRGNRSLQIIIDNIWPI

Key:
Format in all cases: cell-based
TPH2 exon 9 = assay: Indels editing in TPH2 gene using Cas9 and blunting enzymes; conditions: cultured mammalian cells, Cas9 + TPH2 sgRNA + blunting enzyme; for percentage of +1 insertion mutations: Cas9 and sgRNA alone 0%, FIGS. 14A-14H
Protocol: (§1) To test for the efficiency of inducing indels in a target gene using Cas9 and blunting enzymes, Cas9 and TPH2 targeting sgRNA were co-transferred into cultured mammalian cells in combination with POLM, EXOG, T4 polymerase, DNA polymerase λ (POLL), MGME1, RecJ exonuclease (RecJ) or Nuclease S1 (nucS). Cas9 and sgRNA alone served as the negative control. The occurrence of indels for the control and each of the combinations was measured.

GYPB gene = assay: Indels editing in GYPB gene using Cas9 and blunting enzymes; conditions: cultured mammalian cells, Cas9 + GYPB sgRNA + blunting enzyme; for percentage of +1 insertion mutations: Cas9 and sgRNA alone 10.5%, FIGS. 13A-13H
Protocol: as §1, with “GYPB” for “TPH2”, “DNA polymerase μ (POLM),” for “POLM,”, “DNA polymerase (T4pol),” for “polymerase,”

PCSK9 exon 12 = assay: Indels editing in PCSK9 gene using Cas9 and blunting enzymes; conditions: HEK293T cells, Cas9 + PCSK9 exon 12 sgRNA + blunting enzyme; for percentage of +1 insertion: Cas9 and sgRNA alone 14.4%; for percentage of +1 insertion / percentage of −1 deletion: FIGS. 11A-11H; for +1 insertion frequency: control 9.4%, FIGS. 12A-12B; for percentage of −1 deletion: Cas9 and sgRNA alone 4.3%
Protocol: as §1, with “PCSK9 exon 12” for “TPH2”, “DNA polymerase μ (POLM),” for “POLM,”, “DNA polymerase (T4pol),” for “polymerase,”, “measured. HEK293T cells were used.” for “measured.”
Results for each of the combinations are presented in FIGS. 11A-11H and comparisons between the control and blunting enzymes are presented in FIGS. 12A-12B.

Molecule | percentage of +1 insertion mutations (TPH2 exon 9) [%] | percentage of +1 insertion mutations (GYPB gene) [%] | percentage of +1 insertion (PCSK9 exon 12) [%] | percentage of −1 deletion mutations (TPH2 exon 9; Cas9 and sgRNA alone 13.2%, FIG. 14D) [%] | percentage of −1 deletion mutations (GYPB gene; Cas9 and sgRNA alone 1.7%, FIG. 13D) [%] | +1 insertion frequency (PCSK9 exon 12) [%] | percentage of −1 deletion (PCSK9 exon 12) [%]
POLM: DNA polymerase μ, DSB-end blunting enzyme co-transferred with Cas9 and sgRNA (AIYLVEPRMGRSRRAFLTGLARSKGFRVLDA) | 12.5 | 13.7 | 19.6 |  |  |  | 
B1 |  | 13.4 | 36.75 | 36.7 | 9.05 | 30.3 | 
B2 | 2.95 | 22.1 | 39.55 |  |  | 35.0 | 
B3 |  |  |  |  |  |  | 5.05
B4 |  |  |  |  |  |  | 6.35
B5 |  |  |  |  |  |  | 5.5
